According to the Immune Epitope Database (IEDB):
One block for each sequence: values may come before it.

Legend:
[1] = molecular target: HLA-B*53:01; assay: IEDB peptide-MHC binding, purified MHC/competitive/radioactivity; filed as Kd, often an IC50 or EC50 that approximates it; ≥ and ≤ were set here for values at or beyond the usual limits of such assays; details: source organism: Vaccinia virus WR
[2] = molecular target: HLA-B*07:02; assay: as above; details: source organism: Vaccinia virus WR
[3] = molecular target: HLA-B*51:01; assay: as above; details: source organism: Vaccinia virus WR
[4] = molecular target: HLA-B*54:01; assay: as above; details: source organism: Vaccinia virus WR
[5] = molecular target: HLA-B*35:01; assay: as above; details: source organism: Vaccinia virus WR
[6] = molecular target: HLA-A*68:02; assay: as above
[7] = molecular target: HLA-A*02:06; assay: as above
[8] = molecular target: HLA-A*02:01; assay: as above
[9] = molecular target: HLA-A*02:17; assay: as above
[10] = molecular target: HLA-A*01:01; assay: as above; details: source organism: Dengue virus 2 Jamaica/1409/1983
[11] = molecular target: HLA-B*15:01; assay: as above; details: source organism: Dengue virus 1 Brazil/97-11/1997
[12] = molecular target: HLA-B*08:01; assay: as above; details: source organism: Dengue virus 1 Brazil/97-11/1997
[13] = molecular target: HLA-A*03:01; assay: IEDB peptide-MHC binding, purified MHC/competitive/fluorescence; filed as Kd, often an IC50 or EC50 that approximates it; ≥ and ≤ were set here for values at or beyond the usual limits of such assays; details: source organism: Escherichia coli O157:H7 str. EDL933
[14] = molecular target: HLA-A*02:03; assay: IEDB peptide-MHC binding, purified MHC/competitive/radioactivity; filed as Kd, often an IC50 or EC50 that approximates it; ≥ and ≤ were set here for values at or beyond the usual limits of such assays
[15] = molecular target: HLA-B*40:01; assay: IEDB peptide-MHC binding, purified MHC/direct/fluorescence; filed as Kd, often an IC50 or EC50 that approximates it; ≥ and ≤ were set here for values at or beyond the usual limits of such assays
[16] = molecular target: HLA-A*31:01; assay: as above
[17] = molecular target: HLA-A*01:01; assay: as above
[18] = molecular target: HLA-A*69:01; assay: as above
[19] = molecular target: HLA-B*27:05; assay: as above
[20] = molecular target: HLA-B*18:01; assay: as above; details: source organism: Mycobacterium tuberculosis str. Haarlem
[21] = molecular target: HLA-A*03:01; assay: as above
[22] = molecular target: HLA-B*44:02; assay: as above
[23] = molecular target: HLA-B*46:01; assay: as above
[24] = molecular target: HLA-B*57:01; assay: as above; details: source organism: Mycobacterium tuberculosis str. Haarlem
[25] = molecular target: HLA-B*08:01; assay: as above
[26] = molecular target: HLA-A*11:01; assay: as above
[27] = molecular target: HLA-B*15:01; assay: as above
[28] = molecular target: HLA-A*02:12; assay: as above; details: source organism: Rift Valley fever virus
[29] = molecular target: HLA-A*02:01; assay: as above
[30] = molecular target: HLA-A*26:01; assay: as above; details: source organism: Escherichia coli O157:H7
[31] = molecular target: HLA-B*07:02; assay: as above; details: source organism: Escherichia coli O157:H7
[32] = molecular target: HLA-B*58:01; assay: as above; details: source organism: Escherichia coli O157:H7
[33] = source organism: Dengue virus 4 Philippines/H241/1956
[34] = source organism: Dengue virus 2 Jamaica/1409/1983
[35] = source organism: Dengue virus 1 Singapore/S275/1990
[36] = source organism: Dengue virus 3 Martinique/1243/1999
[37] = source organism: Dengue virus 3 China/80-2/1980
[38] = source organism: Mycobacterium tuberculosis str. Haarlem
[39] = source organism: Dengue virus 2 Puerto Rico/PR159-S1/1969
[40] = source organism: Rift Valley fever virus
[41] = source organism: Escherichia coli O157:H7
[42] = source organism: Escherichia coli

Sequence: VPDIKLDAVL
- Kd [1]: 134 nM
- Kd [2]: 4.94 nM
- Kd [3]: 335 nM
- Kd [4]: 1620 nM
- Kd [5]: 140 nM

Sequence: TSMAMTCIAV
- Kd [6, 33]: 1.66 nM
- Kd [7, 33]: 9.2 nM
- Kd [8, 33]: 12.3 nM
- Kd [9, 33]: 62.5 nM

Sequence: FLDLPLPWAA
- Kd [7, 33]: 59.3 nM
- Kd [8, 33]: 4.19 nM
- Kd [9, 33]: 499 nM

Sequence: LTAALLLLV
- Kd [6, 34]: 5.36 nM
- Kd [10]: ≥ 42900 nM
- Kd [7, 34]: 3.73 nM
- Kd [8, 34]: 5760 nM
- Kd [9, 34]: ≥ 41700 nM

Sequence: LLMLVTPSM
- Kd [11]: 2.26 nM
- Kd [8, 35]: 7.86 nM
- Kd [12]: 1080 nM
- Kd [9, 35]: 24.3 nM

Sequence: SIILEFFLIV
- Kd [7, 34]: 43.7 nM
- Kd [8, 34]: 29.9 nM
- Kd [9, 34]: 4020 nM

Sequence: KPEVRIPVDL
- Kd [1]: ≥ 42400 nM
- Kd [2]: 235 nM
- Kd [3]: ≥ 69600 nM
- Kd [4]: 14300 nM
- Kd [5]: ≥ 69900 nM

- Kd [13]: 25.1 nM
Sequence: KMARAGLGH

Sequence: QVMLLVLCAV
- Kd [7, 36]: 11.8 nM
- Kd [8, 37]: 146 nM
- Kd [14, 36]: 604 nM
- Kd [9, 37]: ≥ 35100 nM

Sequence: IMANRAQVL
- Kd [15, 38]: ≥ 20000 nM
- Kd [16, 38]: ≥ 20000 nM
- Kd [17, 38]: ≥ 20000 nM
- Kd [18, 38]: ≥ 20000 nM
- Kd [19, 38]: ≥ 20000 nM
- Kd [20]: ≥ 20000 nM
- Kd [21, 38]: ≥ 20000 nM
- Kd [22, 38]: ≥ 20000 nM
- Kd [23, 38]: ≥ 20000 nM
- Kd [24]: ≥ 20000 nM
- Kd [25, 38]: 332 nM
- Kd [26, 38]: ≥ 20000 nM

Sequence: YLEFEALGFL
- Kd [8, 37]: 77.1 nM
- Kd [9, 37]: 45.3 nM

Sequence: LLLLTLLATV
- Kd [7, 34]: 23.8 nM
- Kd [8, 34]: 64.6 nM
- Kd [14, 34]: 1.37 nM
- Kd [9, 34]: 54.4 nM

Sequence: TLYAVATTFI
- Kd [8, 39]: 86.3 nM
- Kd ([14]; source organism: Dengue virus 2 Peru/IQT2913/1996): 13.7 nM
- Kd [9, 39]: 1300 nM

Sequence: YLKEACNHA
- Kd [27, 40]: 652 nM
- Kd [18, 40]: 473 nM
- Kd [28]: 52 nM
- Kd [29, 40]: 243 nM

Sequence: VILAGPMPV
- Kd [9, 34]: 1360 nM

- Kd [15, 41]: ≥ 20000 nM
- Kd [27, 42]: 133 nM
- Kd [30]: ≥ 20000 nM
- Kd [31]: ≥ 20000 nM
- Kd [16, 42]: 622 nM
- Kd [17, 41]: ≥ 20000 nM
- Kd [18, 41]: ≥ 20000 nM
- Kd [32]: ≥ 20000 nM
- Kd [19, 41]: ≥ 20000 nM
- Kd [21, 41]: ≥ 20000 nM
- Kd [22, 41]: ≥ 20000 nM
- Kd [23, 41]: ≥ 20000 nM
- Kd [29, 41]: ≥ 20000 nM
- Kd [25, 41]: ≥ 20000 nM
- Kd [26, 41]: ≥ 20000 nM
Sequence: AQRPAKYSY
